The supplement of paper PMC10567573

B1: BCL2L13 (parent)
chain: MASSSTVPLGFHYETKYVVLSYLG

Variants of: B1
Test: protein stability index of a GFP-peptide fusion (GPS, HEK-293T) (PSI 1-6); higher = more stable
Settings: c terminus: a fixed tail appended
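Note: lentivirally expressed fusions sorted by FACS into six bins by GFP to DsRed ratio, PSI derived from sequencing read proportions per bin multiplied by bin number.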

First: MASSSTHPLGFHYETKYVVLSYLG [V7H]
Second: MASSSTIPLGFHYETKYVVLSYLG [V7I]
The protein stability index of the first is lower: 2.67 for the first, 2.72 for the second.

First: MASSSTKPLGFHYETKYVVLSYLG [V7K]
Second: MASSSTLPLGFHYETKYVVLSYLG [V7L]
The protein stability index of the first is lower: 2.84 for the first, 3.03 for the second.

Compared with MASSSTMPLGFHYETKYVVLSYLG [V7M], MASSSTNPLGFHYETKYVVLSYLG [V7N] is higher in protein stability index: 2.35 for the first, 3.19 for the second.

First: MASSSTPPLGFHYETKYVVLSYLG [V7P]
Second: MASSSTRPLGFHYETKYVVLSYLG [V7R]
The protein stability index of the first is lower: 2.14 for the first, 2.33 for the second.

Going from MASSSTSPLGFHYETKYVVLSYLG [V7S] to MASSSTTPLGFHYETKYVVLSYLG [V7T], the protein stability index falls from 3.11 to 2.36.

First: MASSSTWPLGFHYETKYVVLSYLG [V7W]
Second: MASSSTYPLGFHYETKYVVLSYLG [V7Y]
The protein stability index of the first is lower: 2.36 for the first, 3.3 for the second.

Going from MASSSTVALGFHYETKYVVLSYLG [P8A] to MASSSTVDLGFHYETKYVVLSYLG [P8D], the protein stability index rises from 2.97 to 2.98.

Going from MASSSTVELGFHYETKYVVLSYLG [P8E] to MASSSTVFLGFHYETKYVVLSYLG [P8F], the protein stability index rises from 2.25 to 2.74.

Compared with MASSSTVGLGFHYETKYVVLSYLG [P8G], MASSSTVHLGFHYETKYVVLSYLG [P8H] is lower in protein stability index: 4.24 for the first, 2.22 for the second.

First: MASSSTVILGFHYETKYVVLSYLG [P8I]
Second: MASSSTVKLGFHYETKYVVLSYLG [P8K]
The protein stability index of the first is lower: 2.73 for the first, 3.91 for the second.

Compared with MASSSTVLLGFHYETKYVVLSYLG [P8L], MASSSTVMLGFHYETKYVVLSYLG [P8M] is higher in protein stability index: 1.66 for the first, 3.28 for the second.

First: MASSSTVNLGFHYETKYVVLSYLG [P8N]
Second: MASSSTVQLGFHYETKYVVLSYLG [P8Q]
The protein stability index of the first is higher: 3.63 for the first, 2.54 for the second.

Going from MASSSTVRLGFHYETKYVVLSYLG [P8R] to MASSSTVSLGFHYETKYVVLSYLG [P8S], the protein stability index falls from 3.92 to 2.54.

First: MASSSTVTLGFHYETKYVVLSYLG [P8T]
Second: MASSSTVVLGFHYETKYVVLSYLG [P8V]
The protein stability index of the first is higher: 2.53 for the first, 2.15 for the second.

Compared with MASSSTVWLGFHYETKYVVLSYLG [P8W], MASSSTVYLGFHYETKYVVLSYLG [P8Y] is lower in protein stability index: 3.73 for the first, 3.53 for the second.

First: MASSSTVPAGFHYETKYVVLSYLG [L9A]
Second: MASSSTVPCGFHYETKYVVLSYLG [L9C]
The protein stability index of the first is lower: 2 for the first, 3.98 for the second.

Going from MASSSTVPDGFHYETKYVVLSYLG [L9D] to MASSSTVPEGFHYETKYVVLSYLG [L9E], the protein stability index rises from 2.32 to 2.33.

First: MASSSTVPFGFHYETKYVVLSYLG [L9F]
Second: MASSSTVPGGFHYETKYVVLSYLG [L9G]
The protein stability index of the first is lower: 1.33 for the first, 2.75 for the second.

Going from MASSSTVPHGFHYETKYVVLSYLG [L9H] to MASSSTVPIGFHYETKYVVLSYLG [L9I], the protein stability index rises from 2.31 to 3.14.

First: MASSSTVPKGFHYETKYVVLSYLG [L9K]
Second: MASSSTVPMGFHYETKYVVLSYLG [L9M]
The protein stability index of the first is higher: 2.57 for the first, 2.35 for the second.

First: MASSSTVPNGFHYETKYVVLSYLG [L9N]
Second: MASSSTVPPGFHYETKYVVLSYLG [L9P]
The protein stability index of the first is higher: 3.25 for the first, 2.1 for the second.

Compared with MASSSTVPQGFHYETKYVVLSYLG [L9Q], MASSSTVPRGFHYETKYVVLSYLG [L9R] is lower in protein stability index: 2.62 for the first, 1.79 for the second.

Compared with MASSSTVPSGFHYETKYVVLSYLG [L9S], MASSSTVPTGFHYETKYVVLSYLG [L9T] is lower in protein stability index: 3.42 for the first, 2.45 for the second.

Compared with MASSSTVPVGFHYETKYVVLSYLG [L9V], MASSSTVPWGFHYETKYVVLSYLG [L9W] is higher in protein stability index: 2.06 for the first, 3.66 for the second.

Compared with MASSSTVPYGFHYETKYVVLSYLG [L9Y], MASSSTVPLAFHYETKYVVLSYLG [G10A] is lower in protein stability index: 2.57 for the first, 2.01 for the second.

First: MASSSTVPLCFHYETKYVVLSYLG [G10C]
Second: MASSSTVPLDFHYETKYVVLSYLG [G10D]
The protein stability index of the first is higher: 2.1 for the first, 2.02 for the second.

First: MASSSTVPLEFHYETKYVVLSYLG [G10E]
Second: MASSSTVPLFFHYETKYVVLSYLG [G10F]
The protein stability index of the first is lower: 2.13 for the first, 2.22 for the second.

First: MASSSTVPLHFHYETKYVVLSYLG [G10H]
Second: MASSSTVPLIFHYETKYVVLSYLG [G10I]
The protein stability index of the first is higher: 3.03 for the first, 1.73 for the second.

Compared with MASSSTVPLKFHYETKYVVLSYLG [G10K], MASSSTVPLLFHYETKYVVLSYLG [G10L] is lower in protein stability index: 3.29 for the first, 2.52 for the second.

Compared with MASSSTVPLMFHYETKYVVLSYLG [G10M], MASSSTVPLNFHYETKYVVLSYLG [G10N] is higher in protein stability index: 2.73 for the first, 2.93 for the second.

First: MASSSTVPLQFHYETKYVVLSYLG [G10Q]
Second: MASSSTVPLRFHYETKYVVLSYLG [G10R]
The protein stability index of the first is lower: 1.69 for the first, 3.6 for the second.

Compared with MASSSTVPLSFHYETKYVVLSYLG [G10S], MASSSTVPLTFHYETKYVVLSYLG [G10T] is higher in protein stability index: 2.77 for the first, 3.54 for the second.

Compared with MASSSTVPLVFHYETKYVVLSYLG [G10V], MASSSTVPLWFHYETKYVVLSYLG [G10W] is higher in protein stability index: 2.14 for the first, 2.57 for the second.

First: MASSSTVPLYFHYETKYVVLSYLG [G10Y]
Second: MASSSTVPLGAHYETKYVVLSYLG [F11A]
The protein stability index of the first is higher: 4.41 for the first, 2.41 for the second.

First: MASSSTVPLGCHYETKYVVLSYLG [F11C]
Second: MASSSTVPLGDHYETKYVVLSYLG [F11D]
The protein stability index of the first is higher: 2.63 for the first, 2.03 for the second.

Going from MASSSTVPLGEHYETKYVVLSYLG [F11E] to MASSSTVPLGGHYETKYVVLSYLG [F11G], the protein stability index falls from 1.94 to 1.35.

Going from MASSSTVPLGHHYETKYVVLSYLG [F11H] to MASSSTVPLGIHYETKYVVLSYLG [F11I], the protein stability index rises from 1.67 to 2.02.

Compared with MASSSTVPLGKHYETKYVVLSYLG [F11K], MASSSTVPLGLHYETKYVVLSYLG [F11L] is lower in protein stability index: 2.63 for the first, 2.36 for the second.

Compared with MASSSTVPLGMHYETKYVVLSYLG [F11M], MASSSTVPLGNHYETKYVVLSYLG [F11N] is lower in protein stability index: 2.82 for the first, 2.69 for the second.

Compared with MASSSTVPLGPHYETKYVVLSYLG [F11P], MASSSTVPLGQHYETKYVVLSYLG [F11Q] is higher in protein stability index: 2.33 for the first, 2.85 for the second.

Compared with MASSSTVPLGRHYETKYVVLSYLG [F11R], MASSSTVPLGSHYETKYVVLSYLG [F11S] is higher in protein stability index: 1.71 for the first, 1.9 for the second.

Compared with MASSSTVPLGTHYETKYVVLSYLG [F11T], MASSSTVPLGWHYETKYVVLSYLG [F11W] is higher in protein stability index: 1.81 for the first, 1.89 for the second.

Going from MASSSTVPLGYHYETKYVVLSYLG [F11Y] to MASSSTVPLGFAYETKYVVLSYLG [H12A], the protein stability index falls from 2.49 to 2.3.

Compared with MASSSTVPLGFCYETKYVVLSYLG [H12C], MASSSTVPLGFDYETKYVVLSYLG [H12D] is lower in protein stability index: 3.05 for the first, 2.39 for the second.

Compared with MASSSTVPLGFEYETKYVVLSYLG [H12E], MASSSTVPLGFFYETKYVVLSYLG [H12F] is higher in protein stability index: 2.55 for the first, 3.51 for the second.

Compared with MASSSTVPLGFGYETKYVVLSYLG [H12G], MASSSTVPLGFIYETKYVVLSYLG [H12I] is higher in protein stability index: 2.11 for the first, 2.75 for the second.

Compared with MASSSTVPLGFKYETKYVVLSYLG [H12K], MASSSTVPLGFLYETKYVVLSYLG [H12L] is lower in protein stability index: 2.23 for the first, 1.49 for the second.
